Assay: Denim bleaching: laccase-mediator (100 nkat/g, 5 mg/g, 30 min, 60° C.) compared to sodium hypochlorite (15 min, 40° C.)
Method: Different types of demin were treated with a TaLcc1 laccase product from Trichoderma strain RF5597 and DeniLite II Base from Novozymes and the results obtained were compared to hypochlorite bleaching. All together 27 pieces of different kinds of denim (whole jeans), which had been previously washed with cellulase after desizing to different abrasion levels or had been only desized with ECOSTONE®A200 (60° C., 10 min), were collected for the test (Table 15). The jeans were made of Indigo dyed denim, except the English jeans contained Indigo dyed denim with sulphur bottom. Jeans were cut in such a way that pieces from the same pair of jeans could be used for all tests.
The jeans were made of Indigo dyed denim (right hand twill), except the English jeans contained Indigo dyed denim with sulphur bottom. The weights of the original (i.e. not desized) denim fabrics were typically higher than 475 g/m^2 (14 oz/yd^2). The weights of three 10 cm×10 cm pieces were measured after 24 hours incubation at room temperature (ca. 22° C. and at relative moisture ca. 64%).
The laccase treatments were performed with Electrolux's Wascator FOM 71 CLS washer extractor under optimal conditions for each enzyme, described in Table 16. Methyl syringate (Example 7) was used as a mediator. Laccase was inactivated after draining by raising the pH above 11 by NaOH (10 min, 60° C.) and rinsing for three times. The fabrics were dried in a tumbler.
The sodium hypochlorite bleaching was performed with Electrolux's Wascator FOM 71 CLS washer extractor using denim obtained from the same jeans as in laccase treatments under conditions described in Table 17. Sodium hydroxide was added before adding 25 ml/l of 10% sodium hypochlorite solution (Klorite Forte, Farmos Oy) to keep the pH above 10.5 during the treatment. After draining the bleach liquor, there was one 2 minutes rinsing step with the liquor ratio of 1:20 before dechlorinating with sodium thiosulphate. After dechlorinating the denim samples were rinsed 3 times for 2 minutes with the liquor ratio of 1:20. The fabrics were dried in a tumbler.
The bleaching effect was evaluated by measuring the colour as reflectance values as in Example 7. […] Different looks were obtained depending on the type of the denim and cellulase treatment used. “Sulphur-bottom type” denim was the most difficult to bleach.

[1] = all cellulase treated denim samples
[2] = sample B1: Basic Jeans, Ecostone P1250
[3] = sample E1: English jeans (sulphur bottom), desized only
[4] = sample E2: English jeans, Ecostone NP2000
[5] = sample E3: English jeans, Rocksoft NCE-EA
[6] = sample E4: English jeans, Rocksoft NCE-2X
[7] = sample E5: English jeans, Ecostone L900
[8] = sample E6: English jeans, Ecostone L900
[9] = sample E7: English jeans, Ecostone L900
[10] = sample L1: Lee Cooper jeans, desized only
[11] = sample L2: Lee Cooper jeans, Ecostone L
[12] = sample L3: Lee Cooper jeans, Biotouch C29
[13] = sample L4: Lee Cooper jeans, Ecostone L
[14] = sample L5: Lee Cooper jeans, Indiage Max L
[15] = sample L6: Lee Cooper jeans, Indiage Super L
[16] = sample L7: Lee Cooper jeans, Ecostone CXP500 Exper.
[17] = sample L8: Lee Cooper jeans, Ecostone CXP experimental
[18] = sample L9: Lee Cooper jeans, Ecostone N400
[19] = sample T1: Tincan jeans, desized only
[20] = sample T2: Tincan jeans, Ecostone N400
[21] = sample T3: Tincan jeans, Ecostone L300
[22] = sample T4: Tincan jeans, Denimax 991S
[23] = sample W1: Warric jeans, desized only
[24] = sample W2: Warric jeans, Ecostone P4500
[25] = sample W3: Warric jeans, Indiage Max G
[26] = sample W4: Warric jeans, Ecostone NP2000
[27] = sample W5: Warric jeans, Ecostone L900
[28] = sample W6: Warric jeans, Denabraide MBL 65 E

B1: TaLcc1: Recombinant Thielavia arenaria ALKO4197 laccase 1 (SEQ ID NO: 12) produced in Trichoderma reesei strains RF5597/RF5598 (protein)
chain: MKSWAAAVALMVGILSPHAAAAPPANPVQRDMLQVLEARQSGPTCNTPSNRACWTNGFDINTDYEVSTPNTGRTVAYQLTLTEKENWIGPDGVLKNVVMLVNDKIIGPTIRANWGDNIEVTVINNLKTNGTSMHWHGLRQLGNVFNDGANGVTECPIPPKGGRKTYKFRATQYGTSWYHSHFSAQYGNGVVGTIQIDGPASLPYDIDLGVFPLMDYYYRSADELVHFTQSNGAPPSDNVLFNGTARHPETGAGQWYNVTLTPGKRHRLRIINTSTDNHFQVSLVGHNMTVIATDMVPVNAFTVSSLFLAVGQRYDVTIDANSPVGNYWFNVTFGDGLCGSSNNKFPAAIFRYQGAPATLPTDQGLPVPNHMCLDNLNLTPVVTRSAPVNNFVKRPSNTLGVTLDIGGTPLFVWKVNGSAINVDWGKPILDYVMSGNTSYPVSDNIVQVDAVDQWTYWLIENDPTNPIVSLPHPMHLHGHDFLVLGRSPDELPSAGVRHIFDPAKDLPRLKGNNPVRRDVTMLPAGGWLLLAFKTDNPGAWLFHCHIAWHVSGGLSVDFLERPNDLRTQLNSNAKRADRDDFNRVCREWNAYWPTNPFPKIDSGLRHRFVEESEWMVR
modifications: Thielavia arenaria ALKO4197; (1)..(617) Deduced amino acid sequence of Thielavia arenaria ALKO4197 laccase 1 (Ta Lcc1)
- bleaching better than DeniLite II Base [1]: 55-200%
- bleaching better than sodium hypochlorite [1]: 60-115%
- increase of L* better than DeniLite II Base (fabrics only desized): over 100%
- increase of L* compared with sodium hypochlorite (fabrics only desized): equal or better
- Increase of L* [2]: 17.71
- L* after treatment [2]: 47.19
- b* after treatment [2]: −12.75
- Increase of L* [3]: 5.24
- L* after treatment [3]: 22.71
- b* after treatment [3]: −13.97
- Increase of L* [4]: 10.51
- L* after treatment [4]: 35.99
- b* after treatment [4]: −14.08
- Increase of L* [5]: 11.26
- L* after treatment [5]: 36.52
- b* after treatment [5]: −14.46
- Increase of L* [6]: 11.75
- L* after treatment [6]: 38.79
- b* after treatment [6]: −13.94
- Increase of L* [7]: 12.34
- L* after treatment [7]: 37.53
- b* after treatment [7]: −14.03
- Increase of L* [8]: 11.63
- L* after treatment [8]: 34.17
- b* after treatment [8]: −14.79
- Increase of L* [9]: 13.16
- L* after treatment [9]: 36.00
- b* after treatment [9]: −14.95
- Increase of L* [10]: 12.92
- L* after treatment [10]: 33.13
- b* after treatment [10]: −19.41
- Increase of L* [11]: 19.08
- L* after treatment [11]: 50.89
- b* after treatment [11]: −13.17
- Increase of L* [12]: 19.21
- L* after treatment [12]: 47.66
- b* after treatment [12]: −14.82
- Increase of L* [13]: 18.97
- L* after treatment [13]: 48.39
- b* after treatment [13]: −13.83
- Increase of L* [14]: 19.24
- L* after treatment [14]: 47.73
- b* after treatment [14]: −14.28
- Increase of L* [15]: 17.17
- L* after treatment [15]: 46.71
- b* after treatment [15]: −14.68
- Increase of L* [16]: 15.75
- L* after treatment [16]: 42.95
- b* after treatment [16]: −16.23
- Increase of L* [17]: 17.27
- L* after treatment [17]: 46.73
- b* after treatment [17]: −14.86
- Increase of L* [18]: 16.22
- L* after treatment [18]: 45.02
- b* after treatment [18]: −14.91
- Increase of L* [19]: 9.80
- L* after treatment [19]: 34.82
- b* after treatment [19]: −16.36
- Increase of L* [20]: 14.50
- L* after treatment [20]: 42.70
- b* after treatment [20]: −14.60
- Increase of L* [21]: 18.01
- L* after treatment [21]: 47.09
- b* after treatment [21]: −14.04
- Increase of L* [22]: 16.37
- L* after treatment [22]: 43.53
- b* after treatment [22]: −15.18
- Increase of L* [23]: 10.51
- L* after treatment [23]: 28.54
- b* after treatment [23]: −17.55
- Increase of L* [24]: 16.04
- L* after treatment [24]: 42.16
- b* after treatment [24]: −14.48
- Increase of L* [25]: 15.53
- L* after treatment [25]: 44.08
- b* after treatment [25]: −13.66
- Increase of L* [26]: 13.32
- L* after treatment [26]: 39.54
- b* after treatment [26]: −14.72
- Increase of L* [27]: 16.52
- L* after treatment [27]: 40.49
- b* after treatment [27]: −15.38
- Increase of L* [28]: 15.57
- L* after treatment [28]: 39.58
- b* after treatment [28]: −15.62
